The record followed here is patent US20230287598A1.

The target in this assay is Kv1.3 (human (T-cells from human blood donors)) (UniProt P22001). Description: cell-based or functional assay.
Sequence of Kv1.3 (human (T-cells from human blood donors)) (P22001 whole entry): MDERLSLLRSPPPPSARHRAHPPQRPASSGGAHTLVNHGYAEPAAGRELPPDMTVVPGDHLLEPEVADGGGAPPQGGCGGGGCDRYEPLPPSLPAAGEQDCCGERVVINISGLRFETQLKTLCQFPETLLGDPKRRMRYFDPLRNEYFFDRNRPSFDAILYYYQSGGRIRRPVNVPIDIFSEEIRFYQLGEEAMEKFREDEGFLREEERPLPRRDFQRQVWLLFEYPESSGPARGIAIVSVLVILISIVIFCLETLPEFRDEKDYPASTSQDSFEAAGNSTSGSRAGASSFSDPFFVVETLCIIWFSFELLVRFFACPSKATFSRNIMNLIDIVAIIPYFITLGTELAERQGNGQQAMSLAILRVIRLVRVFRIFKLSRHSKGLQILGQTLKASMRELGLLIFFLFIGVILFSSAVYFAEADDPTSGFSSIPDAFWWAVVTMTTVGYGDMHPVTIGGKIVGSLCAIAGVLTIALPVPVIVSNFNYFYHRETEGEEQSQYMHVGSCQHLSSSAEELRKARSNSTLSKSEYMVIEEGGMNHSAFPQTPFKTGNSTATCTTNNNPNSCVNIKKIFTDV

For the substance “BLV1H12 GLLV 3xG4S OSK1 (P12,K16,D20) (antibody)”, the TNF-α ELISA (A450), Donor 1, 6 nM IgG was determined as 0.666 A450; the TNF-α ELISA (A450), Donor 1, 17 nM IgG was found to be 0.651 A450; the TNF-α ELISA (A450), Donor 1, 50 nM IgG was 0.58 A450; the TNF-α ELISA (A450), Donor 1, 150 nM IgG stood at 0.171 A450. Besides, the TNF-α ELISA (A450), Donor 2, 6 nM IgG worked out at 0.121 A450; the TNF-α ELISA (A450), Donor 2, 17 nM IgG is 0.108 A450; the TNF-α ELISA (A450), Donor 2, 50 nM IgG amounted to 0.097 A450; the TNF-α ELISA (A450), Donor 2, 150 nM IgG is 0.037 A450. The substance also displayed a TNF-α ELISA (A450), Donor 3, 6 nM IgG of 0.191 A450; a TNF-α ELISA (A450), Donor 3, 17 nM IgG of 0.168 A450; a TNF-α ELISA (A450), Donor 3, 50 nM IgG of 0.122 A450; a TNF-α ELISA (A450), Donor 3, 150 nM IgG of 0.037 A450.

As for “BLV1H12 GLLV 3xG4S OSK1 (K16,D20) (antibody)”, the TNF-α ELISA (A450), Donor 1, 6 nM IgG came out at 0.641 A450; the TNF-α ELISA (A450), Donor 1, 17 nM IgG amounted to 0.698 A450; the TNF-α ELISA (A450), Donor 1, 50 nM IgG turned out to be 0.556 A450; the TNF-α ELISA (A450), Donor 1, 150 nM IgG came to 0.253 A450. This substance came in with a TNF-α ELISA (A450), Donor 2, 6 nM IgG of 0.096 A450; a TNF-α ELISA (A450), Donor 2, 17 nM IgG of 0.094 A450; a TNF-α ELISA (A450), Donor 2, 50 nM IgG of 0.075 A450; a TNF-α ELISA (A450), Donor 2, 150 nM IgG of 0.027 A450. For the same substance, the TNF-α ELISA (A450), Donor 3, 6 nM IgG worked out at 0.159 A450; the TNF-α ELISA (A450), Donor 3, 17 nM IgG came to 0.144 A450; the TNF-α ELISA (A450), Donor 3, 50 nM IgG was 0.102 A450; the TNF-α ELISA (A450), Donor 3, 150 nM IgG stood at 0.029 A450.
